Assay results published in patent US20200347130A1 (JIANGSU HENGRUI MEDICINE, published 2020).

Columns and labels:
[1] = target: T1, Biotinylated CD96 antigen (human, UniProt P40200-2 22-503, limits assumed, biotinylated); assay: competition ELISA: antibody B pre-incubated with biotinylated CD96 antigen, added to a plate coated with antibody A, HRP-streptavidin, OD450; competitor: coated h1719-014 (named by the legend paragraph 84)
T1 sequence (looked up): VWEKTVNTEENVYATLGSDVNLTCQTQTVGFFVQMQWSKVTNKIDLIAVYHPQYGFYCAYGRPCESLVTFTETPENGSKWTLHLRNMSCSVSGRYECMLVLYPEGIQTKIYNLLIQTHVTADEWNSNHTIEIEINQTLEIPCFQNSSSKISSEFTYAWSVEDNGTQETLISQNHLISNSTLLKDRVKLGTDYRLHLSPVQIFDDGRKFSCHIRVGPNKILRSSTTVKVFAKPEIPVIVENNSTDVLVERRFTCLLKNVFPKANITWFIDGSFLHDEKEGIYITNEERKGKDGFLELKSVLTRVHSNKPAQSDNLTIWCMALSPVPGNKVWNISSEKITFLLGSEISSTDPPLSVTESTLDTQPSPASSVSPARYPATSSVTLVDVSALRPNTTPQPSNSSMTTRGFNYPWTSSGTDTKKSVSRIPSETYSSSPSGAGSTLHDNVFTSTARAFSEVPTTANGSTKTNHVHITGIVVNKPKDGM
Experimental: (§1) Competitive assays of different antibodies binding to CD96 protein were used to classify binding epitopes of the antibodies. The specific experimental methods are as follows:
(§2) Antibody A was diluted to a concentration of 2 μg/ml with PBS buffer (Shanghai Yuanpei Biotechnology Co., Ltd. Cat No. B320), pH 7.4, added to a 96-well microtiter plate (Corning, Cat No. CLS3590-100EA) at a volume of 50 μl/well, and coated at 4° C. overnight. After discarding the liquid, 250 μl/well of 5% skim milk (BD skim milk, Cat No. 232100) blocking solution diluted with PBS was added, and the plate was incubated at 37° C. for 3 hours. After blocking, the blocking solution was discarded, and the plate was washed 5 times with PBST buffer (pH 7.4 PBS containing 0.05% tween-20) and stored for later use. Antibody B was diluted to 40 μg/ml and 8 μg/ml with 1% BSA, and Biotinylated CD96 antigen was simultaneously diluted to 4 μg/mL. Subsequently, antibody B and antigen were mixed in a 1:1 volume ratio, pre-incubated at 37° C. for 45 minutes, added into the enzyme plate coated with antibody A, thus incubating the plate in an incubator at 37° C. for 1.5 hours. After incubation, the plate was washed for 5 times with PBST, and 50 μl/well of HRP-labeled streptavidin (Sigma, Cat No. 52438) diluted with sample dilution was added, followed by incubating the plate at 37° C. for 1 hour. After washing the plate 5 times with PBST, 50 μl/well of TMB chromogenic substrate (KPL, Cat No. 52-00-03) was added for color development, followed by adding 50 μl/well of 1M H₂SO₄ to stop the reaction. The absorption value was read at 450 nm with a NOVOStar microplate reader, and the OD value was used to determine whether A and B CD96 antibodies compete with each other. Antibodies that compete with each other fall into the same class of antibodies, otherwise belong to different classes of antibodies (see FIG. 3 and Table 18).

[2] = target: T1, Biotinylated CD96 antigen; assay: competition ELISA, antibody B premixed with biotinylated CD96; competitor (coated antibody A): h1718-012
Experimental: as §1, §2

[3] = target: T1, Biotinylated CD96 antigen; assay: competition ELISA, antibody B premixed with biotinylated CD96; competitor (coated antibody A): h1719-014
Experimental: as §1, §2

[4] = target: T2, CD96 epitope peptide #3 IAVYHPQYGFYCAYGRPCES (47-66) (human); assay: FACS on CD96-CHOs cells after pre-incubation of the antibody with the peptide; a fall of the MFI against antibody alone shows that the peptide occupies the antibody
T2 construct: also called 3# peptides; #3 antigen fragment
T2 peptide: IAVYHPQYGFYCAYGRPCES
Experimental: In order to verify that the binding of the antibody to CD96 protein polypeptide fragment is specific, we designed the following FACS for verification. While polypeptide fragments were incubated and bound to an antibody, epitopes of the antibody binding to CD96 protein were occupied, and then the signal of the antibody binding to CD96 protein on the cell surface decreased. The specific experimental methods are as follows:
The antibody samples were diluted to 1.2 μg/mL with 1% BSA, and the peptides were diluted to 40 μg/mL synchronously. The peptides and antibody sample were mixed at a volume ratio of 1:1 and pre-incubated at 37° C. for 90 minutes. CD96-CHOs cells were collected and washed once in PBS, then dispensed according to 0.5×10⁶/test. The cells with 100 μL of peptide-antibody mixture were resuspended, incubated at 4° C. for 1 hour, followed by washing 3 times with 1% BSA. Cells were resuspended with 100 μL dilution (1:400, 1:40, 1:100) of Alexa Fluor 488 anti-human IgG Fc (thermofisher, A-11013), PE goat anti-mouse IgG (Biolegend, Cat No. 405307), or PE goat anti-Rat IgG (Biolegend, Cat No. 405406), incubated at 4° C. for 40 minutes, followed by washing 3 times with 1% BSA. The cells were resuspended with 200 μL of 1% BSA, MFI of each sample was read on a flow cytometer BD FACSCanto II, and the data were analyzed with GraphPad Prism 5 to make a histogram. MFI difference between the sample without polypeptides incubation and the one incubated with polypeptides was used to determine the antigenic epitope recognized by the CD96 antibody.

Row | Binder | IC50 (read off the curve) [1] [pM] | competition (percent) [2] [%] | competition (percent) [3] [%] | binding result [4]
1 | h1719-010 (antibody, V domains shown, Only variable regions are tied to this name) VH: EVTLKESGPVLVKPTETLTLTCTVSGFSLSSYGVSWVRQPPGKGLEWLGVIWGDGNTNYHSVLISRLTISKDTSKSQVVLTLTNMDPVDTATYYCAKQNYYGSRYGYPIDYWGQGTTVTVSS VL: DIQMTQSPSSVSASVGDRVTITCKATQDVGTAVAWYQQKPGKAPKLLIYWASTRHTGVPSRFSGSGSGTDFTLTISSLQPEDFATYYCQQYGSSVLTFGGGTKVEIK | ~400 | – | – | –
2 | h1719-014 (antibody, V domains shown, Only variable regions are tied to this name; also called M719-014) VH: EVTLKESGPVLVKPTETLTLTCTVSGFSLSSYGVSWVRQPPGKGLEWLGVIWGDGNTNYHSVLISRLTISKDTSKSQVVLTLTNMDPVDTATYYCAKNYYYGSRYGYPLDYWGQGTTVTVSS VL: DIQMTQSPSSVSASVGDRVTITCKATQDVGTAVAWYQQKPGKSPKLLIYWASTRHTGVPERFSGSGSGTDFTLTISSLQPEDFATYFCQQYGSSVLTFGGGTKVEIK | – | 44.3 | 100 | –
3 | ch1719 (antibody, human IgG4 S228P, kappa, V domains shown, also called chimeric antibody corresponding to m1719) VH: QVQLKESGPGLVAPSQSLSITCTVSGFSLISYGVSWVRQPPGKGLEWLGVIWGDGNTNYHSVLISRLSIRKDDSKSQVFLKLNSLQTDDTATYYCAKNNYYGSRYGYPMDYWGQGTSVTVSS VL: DIVMTQSHKFMSTSVGDRVSITCKATQDVGTAVAWYQQKPGHSPKLLIYWASTRHTGVPERFTGSGSGTDFTLTIDNVQSEDLADYFCQQYGSSVLTFGAGTKVELRR | – | – | – | binds
4 | ch1721 (antibody, human IgG4 S228P, kappa, V domains shown, also called chimeric antibody corresponding to m1721) VH: QVQLKESGPGLVAPSQSLSITCTVSGFSLISYGVNWVRQPPGKGLEWLGVIWGDGSTNYHSALISRLSISKDDSKSQVFLNLNSLQTDDTATYYCAKNYFYGSRYGYAMDSWGQGISVTVSS VL: DIQMTQSPASLSAAVGETVTITCRASENIYSSLAWYQQKQGKSPQLLVYNAKTLIETVASRFSGSGSGTQYSLKINSLQPEDFGSFYCQHHYGTPYTFGGGTKLEIKR | – | – | – | binds
5 | ch1718 (antibody, human IgG4 S228P, kappa, V domains shown, also called chimeric antibody corresponding to m1718) VH: EFQLQQSGPELVKPGASVKISCKASAYSITDYNMNWVKQSNGKSLEWIGVINPSYGITDYNQNFKDKATLTVDQSSSTAYMQLNSLTSEDSAVYYCAIQLRLPGYFDVWGTGTTVIVSS VL: DIKMTQSPSSMYASLGERVTITCKASQDINNYLNWFQQKPGKSPKTLIYRANRLVDGVPSRFSGSGSGQDYSLTISSLEYEDMGIYYCLKYDEFPYTFGGGTKVEIKR | – | – | – | binds

Second part, the binder after the results:

Row | IC50 (read off the curve) [1] [pM] | competition (percent) [2] [%] | competition (percent) [3] [%] | binding result [4] | Binder
6 | ~1000 | 94.4 | 92.3 | – | ch1720 (antibody, human IgG4 S228P, kappa, V domains shown, also called chimeric antibody corresponding to m1720) VH: EFQLQQSGPELVKPGASVKISCKASAYSLTDYNMNWVKQSNGKSLEWIGVINPSYGISSYNQKFKGKATLTVDQSSSTAYMHLNSLTSEDSAVYYCARQLRLPGYFDVWGTGTTVTVSS VL: DIKMTQSPSSKNASLGERVTITCKASQDINSYLNWFQQKPGKSPKTLIYRASRLVDGVPSRFSGSGSGQDYSLTISSLEYEDMGIYYCLKYDEFPYTFGGGTKLEIKR
7 | ~400 | 73.6 | 96 | – | h1721-003 (antibody, V domains shown, Only variable regions are tied to this name; also called M721-003) VH: EVTLKESGPVLVKPTETLTLTCTVSGFSLSSYGVNWIRQPPGKALEWLGVIWGDGSTNYHSALISRLTISKDTSKSQVVLTLTNMDPVDTATYYCAKNYFYGSRYGYAMDSWGQGTTVTVSS VL: DIQMTQSPSSLSASVGDRVTITCRASENIYSSLAWYQQKPGKAPKLLIYNAKTLIEGVPSRFSGSGSGTDFTLTISSLQPEDFATYYCQHHYGTPYTFGGGTKVEIK
8 | – | -3.5 | 8.5 | – | h1722-010 (antibody, V domains shown, Only variable regions are tied to this name; also called M722-010) VH: EVQLVQSGAEVKKPGSSVKVSCKASGGTFSDYWMHWVRQAPGQGLEWIGMLHPNSGTTSFNEKFKIRVTITADKSTSTAYMELSSLRSEDTAVYYCASDYSGPFAYWGQGTLVTVSS VL: DIQLTQSPSSLSASVGDRVTITCSASSSVNYIHWYQQKPGKAPKRWIFDTSKLASGVPSRFSGSGSGTDYTLTISSLQPEDFATYYCQQWRSNPLTFGQGTKLEIK
9 | ~400 | 100 | 94.8 | – | h1718-012 (antibody, V domains shown, Only variable regions are tied to this name) VH: EVQLVQSGAEVKKPGASVKVSCKASGYTITDYNMNWVRQAPGQRLEWIGVINPSYGITDYNQNFKDRVTITVDTSASTAYMELSSLRSEDTAVYYCAIQLRLPGYFDVWGQGTTVTVSS VL: DIQMTQSPSSLSASVGDRVTITCKASQDINQYLNWFQQKPGKAPKTLIYRANRLVDGVPSRFSGSGSGQDYTLTISSLQPEDFATYYCLKYDEFPYTFGGGTKVEIK
